Laboratory results from article PMC12292245, “Probing the Active Site of Class 3 L-Asparaginase by Mutagenesis: Mutations of the Ser-Lys Tandems of ReAV” (Biomolecules, 2025).
Substitutions are numbered along the chain they refer to. Names may count otherwise.

B1: ReAV R47A mutant (Rhizobium etli Class 3, type V L-asparaginase) (enzyme)
chain: MTPSEDFVVTDRGGIVENSHRVHAAVVDAKGRLLYALGNPTRMTLAASAAKPAQALAILETEGVAGYGFDDADIALMCASHSSEDRHIARTRAMLSKIKAEEADLRCGGHPSLSEMVNRSWIKQDFIPTAVCSNCSGKHVGMLAGARAIGAGTDGYHLPDHPMQGRVKRTVAELCDLDAGDVEWGTDGCNLPTPAFPLDRLGRIYAKLASAADGSDAGEGQSTRCAALAHIFRAMARHPEMVAGEGRYCTMLMRAFDGALVGKLGADASYAIGVRASDATRQLGTDGALGISVKIEDGNLEMLYAVVTELLERLGIGSPDVRSQLASFHHPQRVNTMGVTTGGVSFPFKLRGSKSNVDDPRLAAVAR
notes: ReAV, inducible thermolabile type V L-asparaginase of Rhizobium etli; Homodimer; source: E. coli BL21-Gold (DE3), purified (HisTrap, TEV digestion, second HisTrap, Superdex 200)
B2: ReAV K263A mutant (Rhizobium etli Class 3, type V L-asparaginase) (enzyme)
chain: B1 chain with A47R, K263A
modifications: Cys249 chemically modified, modeled as S-hydroxycysteine
notes: ReAV, inducible thermolabile type V L-asparaginase of Rhizobium etli; Homodimer; Zn2+ at occupancy 0.8 in the crystal; source: E. coli BL21-Gold (DE3), purified (HisTrap, TEV digestion, second HisTrap, Superdex 200)
B3: ReAV S80A mutant (Rhizobium etli Class 3, type V L-asparaginase) (enzyme)
chain: B1 chain with A47R, S80A
modifications: Cys249 most likely oxidized, modeled as cysteinesulfinic acid
notes: ReAV, inducible thermolabile type V L-asparaginase of Rhizobium etli; Homodimer; source: E. coli BL21-Gold (DE3), purified (HisTrap, TEV digestion, second HisTrap, Superdex 200); mostly in inclusion bodies, about 10 mg/L recovered from the cell lysate
B4: ReAV K51A mutant (in fact the double mutant K51A/H238Y; Rhizobium etli Class 3, type V L-asparaginase) (enzyme)
chain: B1 chain with A47R, K51A, H238Y
notes: ReAV, inducible thermolabile type V L-asparaginase of Rhizobium etli; the crystallised protein carries the unintended second mutation H238Y; Homodimer; Zn2+ at occupancy 0.5 in the crystal; source: E. coli BL21-Gold (DE3), purified (HisTrap, TEV digestion, second HisTrap, Superdex 200)
B5: ReAV S48A mutant (Rhizobium etli Class 3, type V L-asparaginase) (enzyme)
chain: B1 chain with A47R, S48A
notes: ReAV, inducible thermolabile type V L-asparaginase of Rhizobium etli; Homodimer; Zn2+ at occupancy 0.7 in the crystal; source: E. coli BL21-Gold (DE3), purified (HisTrap, TEV digestion, second HisTrap, Superdex 200)

Target: the molecule itself
Assay: crystal structure; hanging-drop vapor diffusion at 19 °C, protein 15-21 mg/mL with 0.5-1% v/v DDM; data at 100 K; molecular replacement with WT ReAV PDB 7os5; dimers in the asymmetric unit

Protein	binding result
B1	binds
B2	binds
B3	binds
B4	binds
B5	binds
